Data reported in the supplement of paper PMC7877785.
± gives the uncertainty stated by the source.

Experiment: self-splicing fitness, log relative to wild type (ln ratio); higher = more splicing; Tetrahymena group I intron in knt gene, E. coli kanamycin selection, DiMSum; sequences stand for … in CUCUCU…GGAGGGAAAAGUUAUCAGGCAUGCACCUGGUAGCUAGUCUUUAAACCAAUAGAUUGCAUCGGUUUAAAAGGCAAGACCGUCAAAUUGCGGGAAAGGGGUCAACAGCCGUUCAGUACCAAGUCUCAGGGGAAACUUUGAGAUGGCCUUGCAAAGGGUAUGGUAAUAAGCUGACGGACAUGGUCCUAACCACGCAGCCAAGUCCUAAGUCAACAGAUCUUCUGUUGAUAUGGAUGCAGUUCACAGACUAAAUGUCGGUCGGGGAAGAUGUAUUCUUCUCAUAAGAUAUAGUCGGACCUCUCCUUAAUGGGAGCUAGCGGAUGAAGUGAUGCAACACUGGAGCCGCUGGGAACUAAUUUGUAUGCGAAAGUAUAUUGAUUAGUUUUGGAGUACUCGUGGUCG
Summary of the method: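 Library with all eight P1ex-region intron nucleotides randomised, intron inside the knt kanamycin-resistance gene on pET-22b(+), in E. coli BL21(DE3). Cells grew overnight at 37°C or 30°C on LB agar with or without 25 μg/mL kanamycin (plus 100 μg/mL carbenicillin, 50 μM IPTG, 0.2% rhamnose), in six replicate transformations. Pooled colonies were amplicon-sequenced on Illumina HiSeq 2500. DiMSum fitness is the error-weighted combination of wild-type-normalised replicate fold changes, kanamycin versus none.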

Row | Sequence | self-splicing fitness (ln) (30 °C) | self-splicing fitness (ln) (37 °C)
1 | GCAGAGCAAUAUUACGGUCC | -2.22 ± 0.29 | -2.05 ± 0.4
2 | GCAGAGCAAUAUUACGUAAA | -2.76 ± 0.19 | -3.33 ± 0.42
3 | GCAGAGCAAUAUUACGUACC | -1.95 ± 0.17 | -0.941 ± 0.19
4 | GCAGAGCAAUAUUACGUAGU | -3.3 ± 0.28 | -3.09 ± 0.37
5 | GCAGAGCAAUAUUACGUCCC |  | -1.04 ± 0.34
6 | GCAGAGCAAUAUUACGUCGA |  | -1.58 ± 0.21
7 | GCAGAGCAAUAUUACGUGGC |  | -2.09 ± 0.32
8 | GCAGAGCAAUAUUACGUGGU | -3.94 ± 0.17 | -2.27 ± 0.18
9 | GCAGAGCAAUAUUACGUUAC | -2.97 ± 0.16 | -1.38 ± 0.17
10 | GCAUAGCAAUAUUACGAACA | -1.61 ± 0.13 | -1.34 ± 0.12
11 | GCAUAGCAAUAUUACGAGUG | -2.77 ± 0.14 | -1.76 ± 0.11
12 | GCAUAGCAAUAUUACGAUUU | -1.27 ± 0.092 | 0.225 ± 0.14
13 | GCAUAGCAAUAUUACGCACC | -1.28 ± 0.21 | 
14 | GCAUAGCAAUAUUACGCCGG | -3 ± 0.28 | -1.01 ± 0.2
15 | GCAUAGCAAUAUUACGGAAC | -3.61 ± 0.29 | -3.46 ± 0.34
16 | GCAUAGCAAUAUUACGGAGC | -3.59 ± 0.25 | -2.73 ± 0.23
17 | GCAUAGCAAUAUUACGGCAU | -1.21 ± 0.096 | -1.19 ± 0.083
18 | GCAUAGCAAUAUUACGGCUU | -0.36 ± 0.11 | -0.322 ± 0.11
19 | GCAUAGCAAUAUUACGUACG | -1.42 ± 0.076 | -1.14 ± 0.09
20 | GCAUAGCAAUAUUACGUAGC | -4.39 ± 0.26 | -2.15 ± 0.16
21 | GCAUAGCAAUAUUACGUAGG | -2.32 ± 0.11 | -1.31 ± 0.13
22 | GCAUAGCAAUAUUACGUCCG | -1.44 ± 0.081 | -0.899 ± 0.13
23 | GCAUAGCAAUAUUACGUGUA | -2.43 ± 0.13 | -0.881 ± 0.084
24 | GCCAAGCAAUAUUACGAACG | -2.71 ± 0.11 | -1.46 ± 0.13
25 | GCCAAGCAAUAUUACGACAA | -3.73 ± 0.38 | -3.04 ± 0.26

Row | Sequence | self-splicing fitness (ln) (30 °C) | self-splicing fitness (ln) (37 °C)
26 | GCCAAGCAAUAUUACGACGA | -1.84 ± 0.15 | -1.02 ± 0.2
27 | GCCAAGCAAUAUUACGAUCC | -1.01 ± 0.14 | 0.392 ± 0.18
28 | GCCAAGCAAUAUUACGCAGC | -2.96 ± 0.2 | -2.53 ± 0.25
29 | GCCAAGCAAUAUUACGCUAG | -3.06 ± 0.15 | -2.25 ± 0.17
30 | GCCAAGCAAUAUUACGCUCA | -0.458 ± 0.093 | 0.0485 ± 0.12
31 | GCCAAGCAAUAUUACGCUGG | -4.4 ± 0.28 | -2.37 ± 0.18
32 | GCCAAGCAAUAUUACGGAUG | -1.24 ± 0.057 | -0.693 ± 0.07
33 | GCCAAGCAAUAUUACGGCCU | -3.86 ± 0.32 | -1.67 ± 0.19
34 | GCCAAGCAAUAUUACGGUCU | -2.26 ± 0.12 | -0.79 ± 0.12
35 | GCCAAGCAAUAUUACGUAGA | -1.98 ± 0.064 | -1.26 ± 0.077
36 | GCCAAGCAAUAUUACGUAGC | -2.49 ± 0.14 | -1.31 ± 0.13
37 | GCCAAGCAAUAUUACGUAUA | -2 ± 0.23 | -0.632 ± 0.15
38 | GCCAAGCAAUAUUACGUCAA | -2.75 ± 0.34 | -1.97 ± 0.22
39 | GCCAAGCAAUAUUACGUGGA | -0.758 ± 0.049 | -0.303 ± 0.052
40 | GCCAAGCAAUAUUACGUGGC | -3.84 ± 0.2 | -3.04 ± 0.28
41 | GCCAAGCAAUAUUACGUUAU | -2.76 ± 0.14 | -0.784 ± 0.1
42 | GCCAAGCAAUAUUACGUUGG | -3.36 ± 0.27 | -2.6 ± 0.19
43 | GCCCAGCAAUAUUACGAACC | -1.02 ± 0.15 | 0.156 ± 0.15
44 | GCCCAGCAAUAUUACGACAA | -2.72 ± 0.14 | -1.27 ± 0.11
45 | GCCCAGCAAUAUUACGACCG | -2.84 ± 0.18 | -1.55 ± 0.21
46 | GCCCAGCAAUAUUACGAGUA | -0.468 ± 0.14 | -0.671 ± 0.1
47 | GCCCAGCAAUAUUACGAGUG | -1.37 ± 0.076 | -0.365 ± 0.085
48 | GCCCAGCAAUAUUACGAUCG | -3.49 ± 0.12 | -1.44 ± 0.1
49 | GCCCAGCAAUAUUACGCACU | -0.532 ± 0.075 | 0.216 ± 0.12
50 | GCCCAGCAAUAUUACGCAGC | -1.83 ± 0.12 | -1.38 ± 0.13

Row | Sequence | self-splicing fitness (ln) (30 °C) | self-splicing fitness (ln) (37 °C)
51 | GCCCAGCAAUAUUACGCCGA | -1.86 ± 0.13 | -1.2 ± 0.12
52 | GCCCAGCAAUAUUACGCGCG | -2.16 ± 0.14 | -0.815 ± 0.13
53 | GCCCAGCAAUAUUACGCGCU | -3.29 ± 0.18 | -2.41 ± 0.2
54 | GCCCAGCAAUAUUACGCUAA | -0.87 ± 0.083 | -0.549 ± 0.09
55 | GCCCAGCAAUAUUACGGAAG | -2.76 ± 0.13 | -1.4 ± 0.11
56 | GCCCAGCAAUAUUACGGAGC | -4.06 ± 0.39 | -2.17 ± 0.34
57 | GCCCAGCAAUAUUACGGCCA | -2.6 ± 0.27 | -0.571 ± 0.18
58 | GCCCAGCAAUAUUACGGCGU | -1.12 ± 0.064 | -0.731 ± 0.089
59 | GCCCAGCAAUAUUACGGGAA | 0.0209 ± 0.051 | 0.313 ± 0.06
60 | GCCCAGCAAUAUUACGGUUU | 0.123 ± 0.05 | 0.185 ± 0.063
61 | GCCCAGCAAUAUUACGUAUC | -0.98 ± 0.08 | -1.18 ± 0.081
62 | GCCCAGCAAUAUUACGUUCU | -1.95 ± 0.079 | -1.18 ± 0.091
63 | GCCCAGCAAUAUUACGUUGA | -1.72 ± 0.11 | -1.25 ± 0.12
64 | GCCCAGCAAUAUUACGUUUU | -1.53 ± 0.064 | -0.591 ± 0.09
65 | GCCGAGCAAUAUUACGAAGA | -2.76 ± 0.16 | -2.03 ± 0.12
66 | GCCGAGCAAUAUUACGAGAA | -2.99 ± 0.19 | -0.755 ± 0.12
67 | GCCGAGCAAUAUUACGAGGU | -4 ± 0.3 | -2.23 ± 0.25
68 | GCCGAGCAAUAUUACGAUGU | -0.691 ± 0.057 | -0.267 ± 0.069
69 | GCCGAGCAAUAUUACGCAAC | -3.15 ± 0.29 | -2.07 ± 0.26
70 | GCCGAGCAAUAUUACGCAUG | -3.99 ± 0.3 | -2.4 ± 0.22
71 | GCCGAGCAAUAUUACGCCGC | -3.95 ± 0.43 | 
72 | GCCGAGCAAUAUUACGCUUG | -3.71 ± 0.23 | -2.78 ± 0.24
73 | GCCGAGCAAUAUUACGGACU | -1.86 ± 0.2 | -0.863 ± 0.15
74 | GCCGAGCAAUAUUACGGCAG | -3.94 ± 0.29 | -2.61 ± 0.33
75 | GCCGAGCAAUAUUACGGGGG | -3.61 ± 0.19 | -3.02 ± 0.31

Row | Sequence | self-splicing fitness (ln) (30 °C) | self-splicing fitness (ln) (37 °C)
76 | GCCGAGCAAUAUUACGUAAU | -1.28 ± 0.092 | -0.203 ± 0.099
77 | GCCGAGCAAUAUUACGUAUA | -3.29 ± 0.15 | -1.87 ± 0.12
78 | GCCGAGCAAUAUUACGUCUC | -2.92 ± 0.22 | -1.44 ± 0.21
79 | GCCGAGCAAUAUUACGUGGC | -3.26 ± 0.14 | -2.25 ± 0.21
80 | GCCGAGCAAUAUUACGUGUA | -1.32 ± 0.071 | -0.983 ± 0.078
81 | GCCGAGCAAUAUUACGUUCG | -2.72 ± 0.26 | -2 ± 0.34
82 | GCCGAGCAAUAUUACGUUGG | -3.55 ± 0.24 | -2.18 ± 0.27
83 | GCCUAGCAAUAUUACGAAUA | -2.12 ± 0.43 | 
84 | GCCUAGCAAUAUUACGAAUU | -2.09 ± 0.12 | -0.976 ± 0.11
85 | GCCUAGCAAUAUUACGACGC | -0.302 ± 0.091 | 0.255 ± 0.11
86 | GCCUAGCAAUAUUACGACUU | -1.37 ± 0.077 | -0.298 ± 0.079
87 | GCCUAGCAAUAUUACGAUAA | -2.08 ± 0.12 | -1.75 ± 0.14
88 | GCCUAGCAAUAUUACGAUUC | -0.921 ± 0.076 | -0.684 ± 0.096
89 | GCCUAGCAAUAUUACGCAAU | -0.932 ± 0.14 | -0.245 ± 0.17
90 | GCCUAGCAAUAUUACGCUCU | -0.984 ± 0.06 | 0.106 ± 0.083
91 | GCCUAGCAAUAUUACGCUGA | -1.69 ± 0.074 | -0.266 ± 0.079
92 | GCCUAGCAAUAUUACGGCAA | -2.64 ± 0.15 | -1.75 ± 0.14
93 | GCCUAGCAAUAUUACGGCCU | -2.48 ± 0.18 | -1.33 ± 0.24
94 | GCCUAGCAAUAUUACGGCUG | -1.88 ± 0.15 | -3.29 ± 0.42
95 | GCCUAGCAAUAUUACGGGUU | -2.93 ± 0.12 | -2.02 ± 0.13
96 | GCCUAGCAAUAUUACGGUGU | -0.374 ± 0.054 | 0.0553 ± 0.064
97 | GCCUAGCAAUAUUACGGUUU | -0.729 ± 0.05 | -0.56 ± 0.062
